Data reported in US8986682B2, “Method to increase the absorption of unsaturated fatty acids by human infants” (Swedish Orphan Biovitrum AB (publ), priority 2010, dated 2015).
Several values for one entry are separate records, joined by “and”; a condition that tells them apart may be missing. Equal entries are not always repeated. Marks after values point to notes of the source that are not given here.

Tested on: preterm infants born before week 32 of gestational age
Assay: Coefficient of fat absorption (CFA), fat balance of food and stool by gas chromatography, studies BVT.BSSL-020/-021
Format: in vivo, human
Design: Coefficient of Absorption of AA (C20:4 n-6), Minimum: concentration or dose not given beside the values
Settings: for CFA (overall), LS Mean Difference (rhBSSL − Placebo) / CFA (overall), Maximum / CFA (overall), Mean (SD) / CFA (overall), Median / CFA (overall), Minimum: last 72 h of 7-day treatment
Protocol: Patients were randomized to infant formula/pasteurized breast milk supplemented with rhBSSL at a final concentration of 0.15 g/L, or to infant formula/pasteurized breast milk “supplemented” with sterile water for injection (as placebo) for the first 7 days. After a washout period of 2 days, the patient was “crossed over” to the other treatment regimen during a second 7-day treatment period. Collection of feces samples for CFA assessment were performed during the last 3 days (72 hours) of each treatment period.
The collection of feces for the determination of CFA was performed over a period corresponding to the fat, i.e., formula or milk, ingestion during 72 hours toward the end of each treatment period. Diapers supplied to each site were used for feces collection. During the two treatment periods, a carmine red tracer dye was given as a marker together with a meal (approximately at noon) on Day 4 and Day 13, respectively, and collection of stool commenced with the appearance of the first carmine red marker in the stool. The stool containing the first marker was collected and the date and time of the first stool collected was recorded on the CRF. At 72 hours following administration of the first red marker, the second carmine marker was given, and stool collection continued until the second carmine marker appeared. The stool containing the second marker was not collected, but the date and time of the appearance of the second marker was recorded on the CRF. Diapers were weighed before placement and after removal and the difference in weight was recorded on the CRF. The times of each collection and the elapsed duration of the entire collection period was also recorded on the CRF. The use of ointments for the treatment of skin irritation was prohibited during the stool collection period. Diapers were to be changed frequently during the collection period to keep the skin dry. Patients with skin rash severity leading to discontinuation of the stool collection were to be withdrawn from the study. Specific collection methods were provided in a separate laboratory manual. If applicable, vomit from the stool collection periods of both treatment periods was weighed. A small cloth/linen was weighed and placed under the head of each infant. When the cloth/linen was soiled with vomit, it was removed and re-weighed. If an additional cloth was used to remove vomit from the infant, that cloth was also weighed before and after use. The weight of vomit (total weight minus the weight of the cloth/linen) was recorded on the CRF. All other feed losses, e.g., formula or milk left in bottle, were measured and the amount accounted for in the calculation of the volume of formula consumed at each feeding.
Feces samples, the formula (study 020) and the milk aliquots (study 021) were analyzed by a central laboratory. Individual fatty acids, including the long-chain polyunsaturated fatty acids DHA and AA, were quantified in feces and feed by a gas chromatographic method following extraction by the Folch method. In both studies, the Omegawax 250 column (Supelco) was used for separation of the fatty acids. However, due to co-elution of DHA with nervonic acid (C24:1), which was only present in the breast milk, samples from patients of the per-protocol analysis set from study 021 were also analyzed using a SP-2380 column (Supelco) in order to quantify DHA for those samples from study 021. […] Total lipids were calculated as the sum of the individual fatty acids. (See Section 7.5.1). The same analytical principle was used to determine lipids in each of the batches of formula and aliquots of breast milk used in the study. […]

[1] = BVT.BSSL-021 (pasteurized breast milk), PP
[2] = BVT.BSSL-021 (pasteurized breast milk), PP, 72-hour collection period
[3] = BVT.BSSL-021 Pasteurized milk, PP
[4] = combined analysis, PP, post hoc
[5] = combined data, PP, 72-hour collection, rhBSSL (N = 46)

B1: rhBSSL: recombinant human bile-salt-stimulated lipase, SEQ ID. NO. 1, expressed from recombinant CHO cells; used in both clinical trials (protein, listed as Homo sapiens)
chain: AKLGAVYTEGGFVEGVNKKLGLLGDSVDIFKGIPFAAPTKALENPQPHPGWQGTLKAKNFKKRCLQATITQDSTYGDEDCLYLNIWVPQGRKQVSRDLPVMIWIYGGAFLMGSGHGANFLNNYLYDGEEIATRGNVIVVTFNYRVGPLGFLSTGDANLPGNYGLRDQHMAIAWVKRNIAAFGGDPNNITLFGESAGGASVSLQTLSPYNKGLIRRAISQSGVALSPWVIQKNPLFWAKKVAEKVGCPVGDAARMAQCLKVTDPRALTLAYKVPLAGLEYPMLHYVGFVPVIDGDFIPADPINLYANAADIDYIAGTNNMDGHIFASIDMPAINKGNKKVTEEDFYKLVSEFTITKGLRGAKTTFDVYTESWAQDPSQENKKKTVVDFETDVLFLVPTEIALAQHRANAKSAKTYAYLFSHPSRMPVYPKWVGADHADDIQYVFGKPFATPTGYRPQDRTVSKAMIAYWTNFAKTGDPNMGDSAVPTHWEPYTTENSGYLEITKKMGSSSMKRSLRTNFLRYWTLTYLALPTVTDQEATPVPPTGDSEATPVPPTGDSETAPVPPTGDSGAPPVPPTGDSGAPPVPPTGDSGAPPVPPTGDSGAPPVPPTGDSGAPPVPPTGDSGAPPVPPTGDSGAPPVPPTGDAGPPPVPPTGDSGAPPVPPTGDSGAPPVTPTGDSETAPVPPTGDSGAPPVPPTGDSEAAPVPPTDDSKEAQMPAVIRF
- CFA for C20:3 n-6 (sum of C20:3 n-6 and C20:3 n-3), Difference (rhBSSL − Placebo) [1]: 8.91* %
- CFA for C20:4 n-6 (AA) [1]: 72.10%
- CFA for C20:4 n-6 (AA), Difference (rhBSSL − Placebo) [1]: 10.82* %
- CFA for C22:6 n-3 (DHA) [1]: 78.49%
- CFA for C22:6 n-3 (DHA), Difference (rhBSSL − Placebo) [1]: 4.72* %
- CFA for C24:1 [1]: 36.85%
- CFA for C24:1, Difference (rhBSSL − Placebo) [1]: 7.68%
- Total Amount of Fat in Stool, Maximum [2]: 13.3 g
- Total Amount of Fat in Stool, Mean (SD) [2]: 6.16 g and 6.16 (3.550) g
- Total Amount of Fat in Stool, Median [2]: 4.99 g
- Total Amount of Fat in Stool, Minimum [2]: 0.9 g
- Coefficient of absorption of the sum of all LCPUFAs, LS mean [3]: 70.2%
- Coefficient of absorption of the sum of all LCPUFAs, LS mean difference (rhBSSL-Placebo) [3]: 8.02%
- Coefficient of absorption of the sum of all polyunsaturated fatty acids, LS mean [3]: 70.7%
- Coefficient of absorption of the sum of all polyunsaturated fatty acids, LS mean difference (rhBSSL-Placebo) [3]: 6.92%
- Coefficient of absorption of the sum of all saturated fatty acids, LS mean [3]: 66.1%
- Coefficient of absorption of the sum of all saturated fatty acids, LS mean difference (rhBSSL-Placebo) [3]: 4.36%
- Coefficient of absorption of the sum of all unsaturated fatty acids, LS mean [3]: 70.6%
- Coefficient of absorption of the sum of all unsaturated fatty acids, LS mean difference (rhBSSL-Placebo) [3]: 5.10%
- CFA for C12:0 [4]: 88.86%
- CFA for C12:0, Difference (rhBSSL − Placebo) [4]: 2.42%
- CFA for C14:0 (myristic acid) [4]: 76.15%
- CFA for C14:0 (myristic acid), Difference (rhBSSL − Placebo) [4]: 4.81%
- CFA for C16:0 [4]: 55.49%
- CFA for C16:0, Difference (rhBSSL − Placebo) [4]: 2.61%
- CFA for C18:0 [4]: 44.28%
- CFA for C18:0, Difference (rhBSSL − Placebo) [4]: 1.51%
- CFA for C18:1 [4]: 73.66%
- CFA for C18:1, Difference (rhBSSL − Placebo) [4]: 3.65%
- CFA for C18:2 n-6 (linoleic acid) [4]: 77.49%
- CFA for C18:2 n-6 (linoleic acid), Difference (rhBSSL − Placebo) [4]: 5.79%
- CFA for C18:3 n-3 (alpha-linolenic acid) [4]: 76.31%
- CFA for C18:3 n-3 (alpha-linolenic acid), Difference (rhBSSL − Placebo) [4]: 3.66%
- Total Amount of Fat in Stool, Maximum [5]: 15.0 g
- Total Amount of Fat in Stool, Mean (SD) [5]: 7.50 g and 7.50 (3.635) g
- Total Amount of Fat in Stool, Median [5]: 7.05 g
- Total Amount of Fat in Stool, Minimum [5]: 0.9 g
- Total Amount of Fat in Stool, Mean (SD) (combined data, PP, second column also headed rhBSSL (N = 46), placebo according to b324): 8.36 (4.018) g
- Coefficient of Absorption of AA (C20:4 n-6), LS Mean (combined studies 020+021, FAS): 77.60%
- Coefficient of Absorption of AA (C20:4 n-6), LS Mean Difference (rhBSSL − Placebo) (combined studies 020+021, FAS): 8.70%
- Coefficient of Absorption of AA (C20:4 n-6), Maximum (combined studies 020+021, FAS): 100.0%
- Coefficient of Absorption of AA (C20:4 n-6), Mean (SD) (combined studies 020+021, FAS): 77.88 (17.628) %
- Coefficient of Absorption of AA (C20:4 n-6), Median (combined studies 020+021, FAS): 81.28%
- Coefficient of Absorption of AA (C20:4 n-6), Minimum (combined studies 020+021, FAS): 26.6%
- Coefficient of Absorption of DHA (C22:6 n-3), LS Mean (combined studies 020+021, FAS): 77.91%
- Coefficient of Absorption of DHA (C22:6 n-3), LS Mean Difference (rhBSSL − Placebo) (combined studies 020+021, FAS): 6.24%
- Coefficient of Absorption of DHA (C22:6 n-3), Maximum (combined studies 020+021, FAS): 100.0%
- Coefficient of Absorption of DHA (C22:6 n-3), Mean (SD) (combined studies 020+021, FAS): 77.97 (16.251) %
- Coefficient of Absorption of DHA (C22:6 n-3), Median (combined studies 020+021, FAS): 81.22%
- Coefficient of Absorption of DHA (C22:6 n-3), Minimum (combined studies 020+021, FAS): 26.8%
- CFA (overall), LS Mean Difference (rhBSSL − Placebo) (combined studies 020+021, FAS): 3.70%
- CFA (overall), Maximum (combined studies 020+021, FAS): 93.2%
- CFA (overall), Mean (SD) (combined studies 020+021, FAS): 67.80 (16.663) %
- CFA (overall), Median (combined studies 020+021, FAS): 71.09%
- CFA (overall), Minimum (combined studies 020+021, FAS): 11.7%
- Coefficient of Absorption of AA (C20:4 n-6), LS Mean (combined studies 020+021, PP): 77.36%
- Coefficient of Absorption of AA (C20:4 n-6), LS Mean Difference (rhBSSL − Placebo) (combined studies 020+021, PP): 8.63%
- Coefficient of Absorption of AA (C20:4 n-6), Maximum (combined studies 020+021, PP): 100.0%
- Coefficient of Absorption of AA (C20:4 n-6), Mean (SD) (combined studies 020+021, PP): 78.01 (16.881) %
- Coefficient of Absorption of AA (C20:4 n-6), Median (combined studies 020+021, PP): 81.01%
- Coefficient of Absorption of AA (C20:4 n-6), Minimum (combined studies 020+021, PP): 26.6%
- Coefficient of Absorption of DHA (C22:6 n-3), LS Mean (combined studies 020+021, PP): 79.83%
- Coefficient of Absorption of DHA (C22:6 n-3), LS Mean Difference (rhBSSL − Placebo) (combined studies 020+021, PP): 5.80%
- Coefficient of Absorption of DHA (C22:6 n-3), Maximum (combined studies 020+021, PP): 100.0%
- Coefficient of Absorption of DHA (C22:6 n-3), Mean (SD) (combined studies 020+021, PP): 79.76 (14.075) %
- Coefficient of Absorption of DHA (C22:6 n-3), Median (combined studies 020+021, PP): 82.90%
- Coefficient of Absorption of DHA (C22:6 n-3), Minimum (combined studies 020+021, PP): 42.2%
- CFA (overall), LS Mean Difference (rhBSSL − Placebo) (combined studies 020+021, PP): 3.56%
- CFA (overall), Maximum (combined studies 020+021, PP): 93.2%
- CFA (overall), Mean (SD) (combined studies 020+021, PP): 69.08% and 69.08 (14.683) %
- CFA (overall), Median (combined studies 020+021, PP): 71.83%
- CFA (overall), Minimum (combined studies 020+021, PP): 31.2%
- Relative increase of overall CFA compared to the LS mean for placebo (combined studies, PP): 5.4%
- Relative increase of overall CFA compared to the LS mean for placebo (formula-fed infants (BVT.BSSL-020), PP): 3.1%
